Experiment: label from the status in PepcDB records
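Note: failed if final PepcDB status was selected cloned or expressed and not failed if soluble or beyond.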

Question: With “MTGPTPTEAVDITVSVGGFKVGDQNYPINPKITFTNNTGQAIPGGTEFQFDIPVSAPDNAKDQSGGGLKVIASGHTRANNIGGLDGVMHRVSFSLPAWKDLPAGGTYELDMVYYLPISGPANYSVISGGKEFAFKFEQPDLPIGDLNAGTGGGGTTEPGSCDTAGLVTYPNLPQTDLEHHHHHH” as the sequence, how does the protein production read?
Answer: failed

Question: With “MQKTSFALLVAALQLASASALAATPPVADAIWFNGPIITIDDQHPKAQAVAVKDGKILAVGDRQHVLKNKGPATQMLDLKGATLLPGFVDPHGHVSMVGFQAASANLLPPPDGTNNSIPGLQETLRRFEQQSPIPKQFGVLFGFGYDDSQLQEQRHPTKADLDAVTRDLPIAIVHQSSHLGVLNSKALELAGIDASTPNPEGGVIRRVDGSQEPNGVLEENAFFNALIRIFPKLTADQAVDMLSAGQKLYVSYGYTTIQDGRSSPDQVKTAIKAAGDGKLLADIVSYPDILTPGVKQLMVAPWYHPSNQPVVYNQHFRIGGVKLTLDGSPQGKTAWLSQPYFKPPQGQDASYAGYGVVKDADALAIYKEALANRWQILSHTNGDRAIDQLLGSMRAAEQAYPGVDVRPVMIHGQTLRKDQVAELKQLKIFPSLFPMHTYYWGDWHRQSVLGPERAENISPTQWVLQAGMKFTTHHDAPVALPDSMRVLAATVNRTTRSGYVLGPDQRVTPLQALKAMTLWSAYQHFEEDRKGSITPGKLADFAVLSANPLTVKPETLSEIQVLKTVKEGRVIYERPAKVASLPPPFGMHGDPSLPVPQGIRAVAQGDGDLGPALDVIYDRLAPVQP” as the sequence, how does the protein production read?
Answer: failed

Question: For “MESSPLISAGLPIALFIIMIGIGMTLTLRDFRQVAVYPKGMIVGTFAQILLMPVVAFGLAWLFGVSPAIAVGLVIIAACPGGTTSNLFVLLARGNIALSIVLTVSASLITILTLPLFTNMALQHFMGTEESISLPVGKTIAMLVVIVLLPVAIGMLVRTRKPELARKAESLVSIFGGIVLAVLVVALLYGVRDQMWDLLKQAGPSTIALNVAGIALGLLAGRVAGLTQRESLAVAVELGVKNGTIGLMVTLTLLESSTMSIPAAVYGVLMFPIGFLLAMYGRKVIPKSNVAHAAGEA”, which protein production is on record?
Answer: failed

Question: For “TEASSLVGKLETDVEIKASADKFHHMFAGKPHHVSKASPGNIQGCDLHEGDWGTVGSIVFWNYVHDGEAKVAKERIEAVEPDKNLITFRVIEGDLMKEYKSFLLTIQVTPKPGGPGSIVHWHLEYEKISEEVAHPETLLQFCVEVSKEIDEHLLAEE”, which protein production is on record?
Answer: not failed

Question: Which protein production does the source give for “MNKKNVELLVAIGEVYLKAGKLPEAQEYAALAKKVNGKSALASVLEGDIAFEQKNAGLASQKYEEAIYFDPSCTEAYLRYADIYKSANAALAIEKLEQLKAQEPSNTAVDKKLAEIYYLKNDFSKAAEAYSRFAMGPTATEEDLVKYAFALFLNHDFEKSLEVANMGLKKNARHAAFNRLAMYNYTDLKRFDEAIKAADAFFTESDKADYSYLDYMYYGHLLEALKKYDEAVGQYEKAIQLDPTKTDLYKNISSAYEQKNDYKKAISAYQKYYTSLDKEHQTPDLEHHHHHH” here?
Answer: failed

Question: Which protein production does the source give for “MSCYNKALLIGNKVVVILVFLLCLVHSSESLRPLFACDPANGLTRTLRFCRANVPIHVRVQDLLGRLTLQEKIRNLVNNAAAVPRLGIGGYEWWSEALHGISDVGPGAKFGGAFPGATSFPQVITTAASFNQSLWEEIGRVVSDEARAMYNGGVAGLTYWSPNVNILRDPRWGRGQETPGEDPIVAAKYAASYVRGLQGTAAGNRLKVAACCKHYTAYDLDNWNGVDRFHFNAKVTQQDLEDTYNVPFKSCVYEGKVASVMCSYNQVNGKPTCADENLLKNTIRGQWRLNGYIVSDCDSVDVFFNQQHYTSTPEEAAARSIKAGLDLDCGPFLAIFTEGAVKKGLLTENDINLALANTLTVQMRLGMFDGNLGPYANLGPRDVCTPAHKHLALEAAHQGIVLLKNSARSLPLSPRRHRTVAVIGPNSDVTETMIGNYAGKACAYTSPLQGISRYARTLHQAGCAGVACKGNQGFGAAEAAAREADATVLVMGLDQSIEAETRDRTGLLLPGYQQDLVTRVAQASRGPVILVLMSGGPIDVTFAKNDPRVAAIIWAGYPGQAGGAAIANIIFGAANPGGKLPMTWYPQDYVAKVPMTVMAMRASGNYPGRTYRFYKGPVVFPFGFGLSYTTFTHSLAKSPLAQLSVSLSNLNSANTILNSSSHSIKVSHTNCNSFPKMPLHVEVSNTGEFDGTHTVFVFAEPPINGIKGLGVNKQLIAFEKVHVMAGAKQTVQVDVDACKHLGVVDEYGKRRIPMGEHKLHIGDLKHTILVQPQL” here?
Answer: failed

Question: For “IPVFNITSNRGRLLQQISVGDIWGVGRQWANKLISRGIHTAYDLAMTNPHLLKKCFNAVLMRTAMELQGIACGG”, which protein production is on record?
Answer: failed

Question: Which protein production does the source give for “VACKPKEKPSSATSLTDDALMDTVQRRTFNYFWDAAEPNSGLARERYHMDGEYPAGGPEIVTSGGSGFGIMAILAGIDRGYVSREEGLRRMEKIVGFLEKADRFKGAYPHWWNGETGHVQPFGQKDNGGDLVETAFLMQGLLAVHQYYAEGSAEEKKLAGRIDKLWREVDWNWYRHGGQNVLYWHWSPEYGWEMNFPVHGYNECLIMYILAAASPTHGVPAAVYHEGWAQNGAIVSPHKVEGIELHLRYQGGEAGPLFWAQYSFLGLDPVGLKDEYCPSYFNEMRNLTLVNREYCIRNPKHYKGYGPDCWGLTASYSVDGYAAHGPLERDDRGVISPTAALSSIVYTPDQSLQVMHHLYEMGDKVFGPYGFYDAFSETADWYPKRYLAIDQGPIAVMIENYRTGLLWKLFMSHPDVQNGLKKLGFNVKK” here?
Answer: not failed

Question: With “MTPDRKGDGGPSPLGDLKDALGGYLSAAGHGLVGRAGDRLGSLTDRLTESADGGGANGGTGGSEPGTGGSRSGSDGSKSGSGGSKSGSGGSKSGGSVKATHIMETVDIGVPLRTVYDQWTQLQDFSDFTKGVQSVSPHDETTSDWTAKIAFSTRSWKATVQEQIPDQRIVWTSEGAKGSTNGVVTFHELAPRLTRVVVVVEYYPAGFFEKTGNLWRAQGRRLRLDLKHFARHVTMTDAEEIEGWRGEIRDGEVVKSHEEALEEDEDAADEYEDDEEGEYDEEESDGEVPDGEEEPYADEDDGEYENDDAYEADDEDDERARPRR” as the sequence, how does the protein production read?
Answer: failed

Question: With “RSKTVILAKNLPAGTLAAEIQETFSRFGSLGRVLLPEGGITAIVEFLEPLEARKAFRHLAYSKFHHVPLYLEWAPIGVFGAAPQKKDSQHEQPAEKAE” as the sequence, how does the protein production read?
Answer: not failed

Question: Which protein production does the source give for “MASGQGPGPPRQECGEPALPSASEEQVAQDTEEVFRSYVFYRHQQEQEAEGVAAPADPEMVTLPLQPSSTMGQVGRQLAIIGDDINRRYDSEFQTMLQHLQPTAENAYEYFTKIATSLFESGINWGRVVALLGFGYRLALHVYQHGLTGFLGQVTRFVVDFMLHHCIARWIAQRGGWVAALNLGNGPILNVLVVLGVVLLGQFVVRRFFKS” here?
Answer: not failed

Question: Which protein production does the source give for “MQALTTYKCIEKGIVVWLTGLPGSGKTTIATRLADLLQKEGYRVEVLDGDWARTTVSEGAGFTREERLRHLKRIAWIARLLARNGVIVICSFVSPYKQARNMVRRIVEEEGIPFLEIYVKASLEEVIRRDPKGLYKKALKGELENFTGITDPYEPPENPQLVLDTESNTIEHNVSYLYSLVKAVIE” here?
Answer: not failed

Question: With “MLDVAPPVITPRGTKIEPSAGAPFEAVRVARDVLHTSRTAALATLDPVSGYPYTTATNIGIEPDGTPFFFAAGLTLHARNMETDARISVTLAPFGKGDALTLPRLTLVGRADRIGPDEVPLAIARYIARYPKAKLYLSLPDTRLYRLRTEGVQINGGPARNASNITPADLRTDLSGAEELMAAAESEATRLNAIKGEASRLAVLAGAKTGRWKITSIDPDGIDLASASDLARLWFAERVETLKQFEKALAQLLK” as the sequence, how does the protein production read?
Answer: not failed

Question: Which protein production does the source give for “TPVVFLGAGNLATNLAKALYRKGFRIMQVYSRTEESARTLANEVEAEYITDLKDVSNEARLYIISLKDAAFVELLPQITDGKQHALLVHTAGSIPMNIWEGHAERYGVFYPMQTFSKQREVDFREVPFFIEAKRPEDTELLKAVAGTLSDKVYEAD” here?
Answer: failed

Question: With “MAEKRTLIAVIADEDTTTGLLLAGIGQITPETQEKNFFVYQEGKTTKEEITDKFNHFTEERDDIAILLINQHIAENIRARVDSFTNAFPAILEIPSKDHPYDPEKDSVLKRVRKLFGE” as the sequence, how does the protein production read?
Answer: failed

Question: Which protein production does the source give for “MPDSPTLLDLFAEDIGHANQLLQLVDEEFQALERRELPVLQQLLGAKQPLMQQLERNGRARAEILREAGVSLDREGLARYARERADGAELLARGDELGELLERCQQANLRNGRIIRANQASTGSLLNILRGQDAPSLYDSRGGTASSSRQRPLSKA” here?
Answer: not failed

Question: With “MLQSHIMAGNCTVKPARMTRAPYARHELKSTNSGCDESPAALERRVAELLLVADFGAVVGSILDPRQVCEVASSWLGETLGWQMLSVCCHDFSTGTMRGGAGRGRHLSKKRQEGATSTVFIAAAQKGLSDAADVRTIPFPDGSGTLSLSRQSLAESQYSDEFFGGVVENLARSLAAARECDRLKNLSMRDHLTGLYNRRVFEAMLEVEARKRTTKPFSLLLIDLDDFKRVNDTYGHGAGDQVLVAVAKMLRLSFRKSDVVSRYGGEEFGVLLPDTSQDSARVVAERFRQNVATLSLPVNKEKIMPTVSVGIASVTLRLGIEVADVIEEADRALYQAKVTGKNRVCSSLLGENS” as the sequence, how does the protein production read?
Answer: failed

Question: Which protein production does the source give for “MSWFTTQRHSGLCRDFGRRWRRVATISSAIALICAQPLFAVPAAKPNEDFFSIAKSIELLGDVYKNVAQNYVDPVNVSEFMYSGIDGMLGQLDPYTAFLDEEQSGELDEITSGQYAGIGVTLGIFSGDLFIISVIDGQPAAKAGLKVGDQIIAIDGVKVSKKSIDEVRSTIKGSPGTNIRLSIKRDGQGPLTVISLTRGEVRISSVPFFGLFGSSGYVQMNSFSEHSREELSAAIRKIRQEAAKNRVVLNGIVLDLRGNPGGLLTSAVEVAGLFVEKNSRIVSTRGRAADSEQVYVTKTEPQEPTLPLVVMIDGDSASASEIVSGAIQELDRGVILGENSFGKGLVQSIINLPYDHILKMTTAKYYTPSGRLIQKPIARDESRRKVVLSNGDADSTKVFYTRNRRKVYGGGGIRPDVVAKADSLSEYQHKIENSGLLFRYASRFHRKHPEFRLQQLSSEPLYDDFNRFLEKEHFSFRSGAQKTLDSLKTLVQKEAGADKALAGQLDALDKALAASTRRNISRDSLHITAALQREIMRHYDERAALKRAIEDDPVAAKAFALLGDQKRYRSLLKP” here?
Answer: failed

Question: With “PAKWKRGRPDILHVALLTTTDSPLYNEGLLRIYFQVYDGRLFEVGTGVRVPKNYERFRGLVAQLLKTERVPPGEGEALIRLHSRSLAEFVEREGRFILMWEKGSPTTTTYVAARALSTGLPIGVGCFPRGEFKRSTLRKASEAYSIMGGAPLKTWGVASRIVYALER” as the sequence, how does the protein production read?
Answer: failed

Question: With “MSPTSMYIAWGWKDIIPQLPALIHAFQTSEMNTPKMRRLCKFTALPEAMNNIGDRSDVYSFRIFLGTIITVKVSYETLDRLTARHTSLRCYRVACLRIKYAYYTNNNASPGHSFNIKLNIDTGVKGSI” as the sequence, how does the protein production read?
Answer: failed

— a protein production outcome set (Wang et al. 2014)
